Patent US20240199758A1, “METHOD FOR ALLOWING IMMUNE CELLS INFILTRATION IN TUMORS” (Alethia Biotherapeutics Inc., priority 2021, published 2024)
Several values for one entry are separate records, joined by “and”; a condition that tells them apart may be missing. Equal values may be shown once. Entries after “also recorded” stand apart in the source; their conditions may differ.

Legend:
[1] = Non-clinical pharmacokinetics, single and repeat-dose studies in monkeys; format: in vivo, Rhesus monkeys
Source text: There was an approximate 70% increase in systemic exposure following repeated dosing from Day 1 to Day 26 which is consistent with the elimination half-life of AB-16B5 and the dosing intervals. […] The sCLU concentrations were generally back to their baseline levels after 3 to 5 days. The concurrent decrease in sCLU concentrations immediately following dosing with AB-16B5 is consistent with an antigen-sink phenomenon.

[2] = system: frozen tissues from Rhesus monkey; experiment: Tissue cross-reactivity study, Rhesus monkey tissues; format: binding; conditions: Rhesus monkey tissue panel, 2 and 10 μg/mL
Method: In addition, a tissue cross-reactivity study was conducted to determine the potential cross-reactivity of AB-16B5 with frozen tissues from human, Rhesus monkey, and Sprague-Dawley rat tissues.

[3] = Phase I study AB-16B5-101: plasma pharmacokinetics (non-compartmental analysis); format: in vivo, human; conditions: for AUC 0-t / Cmax / Thalf: mean; for AUC 0-t / Cmax / Thalf / Tmax: plasma; for Tmax: median;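 on AUC 0-t: ng·h/mL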
Source text: Plasma PK parameters for AB-16B5 were derived from the concentration-time profiles following the first dose of Cycle 1 and the first dose of Cycle 2 using a non-compartmental analysis (NCA) with Phoenix WinNonlin.

[4] = Phase I study AB-16B5-101: safety and tolerability
Method: The dose escalation was performed using 2 dose escalation schemes; the accelerated dose escalation scheme and the standard dose escalation scheme. Only 1 subject was enrolled in each of the first 2 cohorts as per protocol (accelerated dose escalation scheme).
Subjects received AB-16B5 by a 60-minute IV infusion once weekly on Days 1, 8 and 15 of each cycle of treatment.

For “AB-16B5: humanized IgG2 monoclonal antibody targeting sCLU for the inhibition of cancer-associated EMT; light chain SEQ ID NO:11, heavy chain SEQ ID NO:12”, the “systemic exposure versus dose” value ([1]; monkeys) was “increased with increasing dose levels in a generally greater than dose proportional manner”, the “peak serum AB-16B5 concentrations” value ([1]; monkeys, infusion, single and repeat-dose) was “reached shortly after the start of infusion” and the “systemic exposure once weekly versus twice weekly” value ([1]; monkeys, repeated dosing) was “no notable differences in systemic exposure”. For the same substance, the “accumulation for AUC0-72” value ([1]; repeated dosing) was “a lower extent of accumulation was observed”, the “drug accumulation in terms of Cmax” value ([1]; repeated dosing) was “no evidence of drug accumulation” and the “AB-16B5 staining of tissue elements” value [2] was “observed in a number of tissue elements”. The membrane staining [2] was “no membrane staining was observed”, the “AUC 0-t” value ([3]; Cycle 1, 1.5 mg/kg (N = 1)) was 230,321 ng * h/mL and the Cmax ([3]; Cycle 1, 1.5 mg/kg (N = 1)) was 17,958 ng/mL. The Thalf ([3]; Cycle 1, 1.5 mg/kg (N = 1)) was 9.35 h, the Tmax ([3]; Cycle 1, 1.5 mg/kg (N = 1)) was 1.17 h and the “AUC 0-t” value ([3]; Cycle 1, 3.0 mg/kg (N = 1)) was 645,602 ng * h/mL. The Cmax ([3]; Cycle 1, 3.0 mg/kg (N = 1)) was 50,736 ng/mL, the Thalf ([3]; Cycle 1, 3.0 mg/kg (N = 1)) was 7.39 h and the Tmax ([3]; Cycle 1, 3.0 mg/kg (N = 1)) was 1.08 h. The “AUC 0-t” value ([3]; Cycle 1, 6.0 mg/kg (N = 3)) was 1,357,773 ng * h/mL, the Cmax ([3]; Cycle 1, 6.0 mg/kg (N = 3)) was 117,663 ng/mL and the Thalf ([3]; Cycle 1, 6.0 mg/kg (N = 3)) was 6.99 h. For the same substance, the Tmax ([3]; Cycle 1, 6.0 mg/kg (N = 3)) was 1.00 h, the “AUC 0-t” value ([3]; Cycle 1, 9.0 mg/kg (N = 3)) was 2,083,091 ng * h/mL and the Cmax ([3]; Cycle 1, 9.0 mg/kg (N = 3)) was 162,103 ng/mL. The Thalf ([3]; Cycle 1, 9.0 mg/kg (N = 3)) was 10.78 h, the Tmax ([3]; Cycle 1, 9.0 mg/kg (N = 3)) was 2.00 h and the “AUC 0-t” value ([3]; Cycle 1, 12.0 mg/kg (N = 7)) was 4,045,786 ng * h/mL. The Cmax ([3]; Cycle 1, 12.0 mg/kg (N = 7)) was 256,977 ng/mL, the Thalf ([3]; Cycle 1, 12.0 mg/kg (N = 7)) was 11.99 h and the Tmax ([3]; Cycle 1, 12.0 mg/kg (N = 7)) was 1.12 h. The “increase of mean Cmax and AUC0-t with the dose” value ([3]; Cycle 1, dose range of 3.0 to 12.0 mg/kg) was “dose proportional”, the “AUC 0-t” value ([3]; Cycle 2, 1.5 mg/kg (N = 1)) was 188,584 ng * h/mL and the Cmax ([3]; Cycle 2, 1.5 mg/kg (N = 1)) was 15,662 ng/mL. For the same substance, the Thalf ([3]; Cycle 2, 1.5 mg/kg (N = 1)) was 7.97 h, the Tmax ([3]; Cycle 2, 1.5 mg/kg (N = 1)) was 1.00 h and the “AUC 0-t” value ([3]; Cycle 2, 3.0 mg/kg (N = 1)) was 688,934 ng * h/mL. For the same substance, the Cmax ([3]; Cycle 2, 3.0 mg/kg (N = 1)) was 61,466 ng/mL, the Thalf ([3]; Cycle 2, 3.0 mg/kg (N = 1)) was 6.82 h and the Tmax ([3]; Cycle 2, 3.0 mg/kg (N = 1)) was 1.05 h. For the same substance, the “AUC 0-t” value ([3]; Cycle 2, 6.0 mg/kg (N = 3)) was 1,351,156 ng * h/mL, the Cmax ([3]; Cycle 2, 6.0 mg/kg (N = 3)) was 120,466 ng/mL and the Thalf ([3]; Cycle 2, 6.0 mg/kg (N = 3)) was 7.70 h. For the same substance, the Tmax ([3]; Cycle 2, 6.0 mg/kg (N = 3)) was 1.03 h, the “AUC 0-t” value ([3]; Cycle 2, 9.0 mg/kg (N = 3)) was 2,459,988 ng * h/mL and the Cmax ([3]; Cycle 2, 9.0 mg/kg (N = 3)) was 163,840 ng/mL. For the same substance, the Thalf ([3]; Cycle 2, 9.0 mg/kg (N = 3)) was 13.75 h, the Tmax ([3]; Cycle 2, 9.0 mg/kg (N = 3)) was 1.08 h and the “AUC 0-t” value ([3]; Cycle 2, 12.0 mg/kg (N = 7)) was 4,147,243 ng * h/mL. For the same substance, the Cmax ([3]; Cycle 2, 12.0 mg/kg (N = 7)) was 230,268 ng/mL, the Thalf ([3]; Cycle 2, 12.0 mg/kg (N = 7)) was 21.04 h and the Tmax ([3]; Cycle 2, 12.0 mg/kg (N = 7)) was 1.04 h. The “increase of mean Cmax and AUC0-t with the dose” value ([3]; Cycle 2, dose range of 3.0 to 12.0 mg/kg) was “dose proportional”, the “systemic exposure versus dose” value ([3]; across all dose levels) was “increased in a dose proportional manner” and the “accumulation of AB-16B5” value ([3]; between Cycle 1 and Cycle 2) was “No significant accumulation”. For the same substance, the “dose-related trend in the incidence of AEs” value ([4]; 1.5 to 12.0 mg/kg) was “no dose-related trend”, the dose-limiting toxicity ([4]; 1.5 to 12.0 mg/kg once weekly, 15 subjects) was “No dose-limiting toxicity was observed; also recorded: No dose-limiting toxicities were identified” and the “subjects reporting SAEs” value ([4]; 5 of 15 subjects) was 33%. For the same substance, the “AEs of Grade 3 to 5” value ([4]; 15 subjects) was 12, the “number of SAEs” value ([4]; 15 subjects) was 6 and 5 and the “subjects reporting AEs of Grade 3 to 5” value ([4]; 15 subjects) was 8 subjects. The “total AEs reported” value ([4]; 15 subjects, all causalities) was 167, the safety and tolerability ([4]; 60-minute IV weekly infusion, doses up to 12 mg/kg) was “safe and well tolerated” and the “AEs of Grade 3 to 5 related to AB-16B5” value ([4]; Grade 3 infusion related reaction and Grade 3 rash) was 2. For the same substance, the deaths ([4]; Subjects 004 and 014, associated with progression of the disease) was “Two deaths were reported”, the “grade of drug-related AEs” value ([4]; in vivo) was “mainly of Grade 1 or 2” and the “most frequently reported AEs (all causalities)” value ([4]; in vivo) was “nausea, abdominal pain, back pain, vomiting, chills, dyspnea, constipation and pruritus”. For the same substance, the “most frequently reported AEs related to AB-16B5” value ([4]; in vivo) was “nausea, pruritus, headache and rash”, the “relation of SAEs to AB-16B5” value ([4]; in vivo) was “All SAEs were considered unrelated to AB-16B5; also recorded: none of which were judged related to the study treatment” and the “AEs related (possibly, probably or definitely) to AB-16B5” value ([4]; out of 167 AEs) was 68. The “subjects who discontinued the study due to an adverse event” value ([4]; two subjects (004 and 011)) was 13%.
